Experimental data as given in PMC11999266, “Human glutathione transferases catalyze the reaction between glutathione and nitrooleic acid” (The Journal of Biological Chemistry, 2025).

B1: Human glutathione transferase A4-4 (hGST A4-4) (enzyme, UniProt O15217 1-222, looked up)
chain: MAARPKLHYPNGRGRMESVRWVLAAAGVEFDEEFLETKEQLYKLQDGNHLLFQQVPMVEIDGMKLVQTRSILHYIADKHNLFGKNLKERTLIDMYVEGTLDLLELLIMHPFLKPDDQQKEVVNMAQKAIIRYFPVFEKILRGHGQSFLVGNQLSLADVILLQTILALEEKIPNILSAFPFLQEYTVKLSNIPTIKRFLEPGSKKKPPPDEIYVRTVYNIFRP
notes: Human glutathione transferase A4 (alpha class), ORF of GenBank Y13047.1; Homodimer; Expressed as a C-terminal fusion to His-tagged Trx1 with a TEV site in between; the fusion partner was cut off; the printed mass (25,761 Da) may include such a remnant (surmise); source: E. coli BL21(DE3), pET-Trx1b, purified (GSH-Sepharose, TEV cleavage, HisTrap flow through, SEC); not shown: His tag, N-terminal, …
B2: Human glutathione transferase M1-1 (hGST M1-1) (enzyme, UniProt P09488 1-218, looked up)
chain: MPMILGYWDIRGLAHAIRLLLEYTDSSYEEKKYTMGDAPDYDRSQWLNEKFKLGLDFPNLPYLIDGAHKITQSNAILCYIARKHNLCGETEEEKIRVDILENQTMDNHMQLGMICYNPEFEKLKPKYLEELPEKLKLYSEFLGKRPWFAGNKITFVDFLVYDVLDLHRIFEPKCLDAFPNLKDFISRFEGLEKISAYMKSSRFLPRPVFSKMAVWGNK
notes: Human glutathione transferase M1 (mu class), ORF of GenBank X08020.1; purified without tags; Homodimer; In the crystal it carries the small-molecule adduct GS-10-NO2-OA in the active site; source: E. coli BL21(DE3), pET22b, purified (GSH-Sepharose, SEC)

Target: the molecule itself
Assay: SEC; HiLoad 16/600 Superdex 200, Tris buffer (50 mM, pH 8.0, 150 mM NaCl), calibrated with proteins of known mass; final purification step

Row | Protein | stoichiometry N
1 | B1 | 2
2 | B2 | 2
